Measured values as given in publication PMC5778462.
Where two headings read alike, the source gives them in different places.

How the values were obtained:
Assay in all cases: EMSA
MAZ = target: T1, MAZ (UniProt P56270)
T1 sequence: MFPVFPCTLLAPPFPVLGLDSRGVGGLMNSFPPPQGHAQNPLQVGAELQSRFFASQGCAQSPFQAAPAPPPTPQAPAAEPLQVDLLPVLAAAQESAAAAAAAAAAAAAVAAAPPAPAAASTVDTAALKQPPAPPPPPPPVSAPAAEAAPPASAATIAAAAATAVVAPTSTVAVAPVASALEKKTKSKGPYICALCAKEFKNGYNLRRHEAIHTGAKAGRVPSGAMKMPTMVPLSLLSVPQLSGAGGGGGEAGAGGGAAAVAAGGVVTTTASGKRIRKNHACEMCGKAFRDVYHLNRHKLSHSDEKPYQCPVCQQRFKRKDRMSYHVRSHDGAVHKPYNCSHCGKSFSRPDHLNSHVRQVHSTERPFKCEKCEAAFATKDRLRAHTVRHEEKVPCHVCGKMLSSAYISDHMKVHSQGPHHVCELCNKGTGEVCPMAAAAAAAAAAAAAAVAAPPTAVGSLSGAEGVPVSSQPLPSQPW

OGG1 (hOGG1) [1] = target: T2, OGG1 (hOGG1) (UniProt O15527 1-345)
OGG1 (hOGG1) [2] = target: T2, OGG1 (hOGG1); remark: listed apart in the source

T2 sequence (O15527 whole entry): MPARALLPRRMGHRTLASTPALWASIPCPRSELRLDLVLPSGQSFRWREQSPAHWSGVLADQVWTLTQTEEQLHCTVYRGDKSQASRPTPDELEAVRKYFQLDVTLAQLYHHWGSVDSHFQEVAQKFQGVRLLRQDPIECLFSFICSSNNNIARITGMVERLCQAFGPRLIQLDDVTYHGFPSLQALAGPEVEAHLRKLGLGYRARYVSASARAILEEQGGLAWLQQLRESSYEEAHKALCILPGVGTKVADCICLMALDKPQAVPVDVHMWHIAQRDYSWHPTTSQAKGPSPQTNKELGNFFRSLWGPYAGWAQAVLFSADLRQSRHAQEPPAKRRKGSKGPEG

“AGGGCGGTGTGGGAAGAGGGAAGAGGGGGAGG [32R G4]” was tested, and the binding signal (MAZ) was 1 reference.

“AGGGCGGTGTGGGAAGAGGGAAGAGGGGGAGG [96 G4]” showed a binding signal (fold vs 32R G4) (MAZ; 8-oxoG in 11-nt loop (Table 1: one; text: two; positions only in figure)) of 5.

With “AGGGCGGTGTGGGAAGAGGGAAGAGGGGGAGG [95 G4]” the binding signal (fold vs 32R G4) (MAZ; 8-oxoG at G16) was 5.

For “AGGGCGGTGTGGGAAGAGGGAAGAGGGGGAGG [97 G4]”, the binding signal (fold vs 32R G4) (MAZ; 8-oxoG at G16 and G23) was 5.

AGGGCGGTGTGGGAAGAGGGAAGAGGGGGAGG (structured_DNA) [32R G4]: binds (OGG1 (hOGG1) [1]).

AGGGCGGTGTGGGAAGAGGGAAGAGGGGGAGG (structured_DNA, one 8-oxoG in G-run III (exact position only in figure)) [93 G4]: binds (OGG1 (hOGG1) [2]).

AGGGCGGTGTGGGAAGAGGGAAGAGGGGGAGG (structured_DNA, two 8-oxoG in G-tetrad runs (exact positions only in figure)) [94 G4]: binds (OGG1 (hOGG1) [2]).

AGGGCGGTGTGGGAAGAGGGAAGAGGGGGAGG (structured_DNA, 8-oxoG at G6) [92 G4]: binds (OGG1 (hOGG1) [2]).
